Tested on: KPC cells
Test: Syngeneic orthotopic model with luciferase-labeled KPC cells in C57/BL6 mice
Format: in vivo, mouse
Method: FIGS. 6A-F. DKK3 blockade is associated with increased tumor immune infiltrates and improves response to checkpoint inhibitor therapy. (FIG. 6A) T cells were stimulated, treated with DKK3 (5-10 μg/mL) and proliferation was measured by CFSE assay. In a syngeneic orthotopic model with luciferase-labeled KPC cells, tumors were examined for CD3 and CD8 expression by IHC (FIG. 6B) and additional markers of T cell activity were measured by quantitative PCR (FIG. 6C). Mice in this model were treated with either control IgG, DKK3 mAb JM6-6-1, αCTLA4 or the combination JM6-6-1+αCTLA4 and tumor growth was measured by IVIS imaging to 25 and 190 days (FIG. 6D). Survival in this orthotopic implantation model is shown in (FIG. 6E). Using a GEMM (FIG. 6F), KPC/DKK3^+/+ (black line) or KPC/DKK3^−/− (blue line) mice were treated with αCTLA4 or control IgG and the Kaplan Meier survival curve is shown. *p<0.05, **p<0.01, ***p<0.001.
An orthotopic nude mouse model of PDAC using BxPC3 cancer cells labeled with firefly luciferase (BxPC3-FL) co-injected with HPSCs has been previously described (Hwang et al., 2008). Mice received intrapancreatic injections of BxPC3-FL (1×10^6 per mouse) with HPSC-shControl or HPSC-shDKK3 in a tumor-to-stroma ratio of 1:0 or 1:3 in 50-μL of HBSS and tumor growth was monitored using IVIS imaging (Hwang et al., 2008). In addition, a syngeneic immunocompetent DKK3 null model was used, provided by Dr. C. Niehrs (Barrantes Idel et al., 2006), that was injected with murine PDAC cells (termed “KPC cells”) isolated from tumors arising in a GEMM of PDAC (Pdx1-Cre; Kras^LSL-G12D;Trp53^R172H/+) (Hingorani et al., 2005; Hingorani et al., 2003) and labeled with luciferase.
In order to determine whether manipulation of DKK3 can affect the response to checkpoint inhibitors, mice in the syngeneic orthotopic C57/BL6 model were treated with either isotype control IgG, DKK3 mAb JM6-6-1, α-CTLA4 or the combination of JM6-6-1 with α-CTLA4. […] With additional follow-up to day 200 (FIG. 6D, right), tumors in all groups continued to grow albeit at a slower rate in the JM6-6-1 and combination JM6-6-1+α-CTLA4 groups (FIG. 6D). […] Combination treatment JM6-6-1+α-CTLA4 was associated with a highly significant improvement in survival (p=0.004) and median survival was not reached in this group (FIG. 6E). […] In the combination treatment group, 80% of mice were alive and appeared healthy at 800 days and were electively sacrificed. In the JM6-6-1 group, 20% of mice were still alive at 726 days when they were electively sacrificed.

B1: JM6-6-1: monoclonal antibody against human DKK3; heavy chain variable SEQ ID NO: 19, light chain variable SEQ ID NO: 20 (antibody, V domains shown)
VH: EVKLVESGGGLVKPGGSLKLSCAASGFTFTIEYMAWIRQTPEKRLEWVASISSGGDDIYYADNVKGRFTISRDNAKNTLYLQMSSLKSEDTAIYYCSRSLSDWGQGTTLTVSSAKTTPPSDYPLA
VL: MTQTPLSLPVSLGDQASISCRSSQSILHSNGHTYLEWYLQKPGQSPKLLIYKVSNRFSGVPDRFSGSGSGTDFTLKISRVEAEDLGVYYCFQGSHVPFTFGSGTKLEIERADAAQ
mice alive at 726 days (726 days): 20% | gross tumors in pancreata of remaining mice (at elective sacrifice): no gross tumors were identified | tumor growth by luciferase signal (compared to control IgG): growth inhibition at 22 days and onward | median survival (syngeneic orthotopic C57/BL6 model): 75 days
